Patent US20170101442A1 (CURATORS OF THE UNIVERSITY OF MISSOURI, published 2017)
Ends that are not written are not given here.

B1: Peptide-431 (peptide)
peptide: VHWDFRQWWQPS
modifications: also: 5-FAM label, position not given here
B2: dimeric peptide 431 (peptide)
peptide: VHWDFRQWWQPS
modifications: also: dimer: two copies linked via a lysine, imaging agent coupled to the linker

What was measured:
[1] = molecular target: T1, insulin-like growth factor 2 receptor (IGF2R) on human hepatic stellate cells LX-2 (human, UniProt P11717 41-2491); test: flow cytometry, 5-FAM labelled peptide titrated on LX-2 cells, 1 h at 37 C; apparent Kd
T1 construct: Endogenous IGF2R on LX-2 cells; also called LX-2 cells; LX 2 cells
Procedure: (§1) The cells were incubated with 5 FAM labeled peptides at different concentrations for 1 h at 37° C. The labeled cells were detected by flow cytometry, and the apparent Kd value was calculated using GraphPad Prism. […] The result is consistent with the cellular uptake result depicted in FIGS. 7A-7B, 8A-8G, and 9A-9G.

[2] = molecular target: T1, insulin-like growth factor 2 receptor …; test: flow cytometry, labelled dimeric peptide titrated on LX-2 cells; apparent Kd
Procedure: as §1

[3] = molecular target: T1, insulin-like growth factor 2 receptor …; test: flow cytometry on LX-2 cells; apparent Kd of the dimer against that of the monomer
Procedure: as §1

T1 sequence (P11717 41-2491 R1619G limits assumed): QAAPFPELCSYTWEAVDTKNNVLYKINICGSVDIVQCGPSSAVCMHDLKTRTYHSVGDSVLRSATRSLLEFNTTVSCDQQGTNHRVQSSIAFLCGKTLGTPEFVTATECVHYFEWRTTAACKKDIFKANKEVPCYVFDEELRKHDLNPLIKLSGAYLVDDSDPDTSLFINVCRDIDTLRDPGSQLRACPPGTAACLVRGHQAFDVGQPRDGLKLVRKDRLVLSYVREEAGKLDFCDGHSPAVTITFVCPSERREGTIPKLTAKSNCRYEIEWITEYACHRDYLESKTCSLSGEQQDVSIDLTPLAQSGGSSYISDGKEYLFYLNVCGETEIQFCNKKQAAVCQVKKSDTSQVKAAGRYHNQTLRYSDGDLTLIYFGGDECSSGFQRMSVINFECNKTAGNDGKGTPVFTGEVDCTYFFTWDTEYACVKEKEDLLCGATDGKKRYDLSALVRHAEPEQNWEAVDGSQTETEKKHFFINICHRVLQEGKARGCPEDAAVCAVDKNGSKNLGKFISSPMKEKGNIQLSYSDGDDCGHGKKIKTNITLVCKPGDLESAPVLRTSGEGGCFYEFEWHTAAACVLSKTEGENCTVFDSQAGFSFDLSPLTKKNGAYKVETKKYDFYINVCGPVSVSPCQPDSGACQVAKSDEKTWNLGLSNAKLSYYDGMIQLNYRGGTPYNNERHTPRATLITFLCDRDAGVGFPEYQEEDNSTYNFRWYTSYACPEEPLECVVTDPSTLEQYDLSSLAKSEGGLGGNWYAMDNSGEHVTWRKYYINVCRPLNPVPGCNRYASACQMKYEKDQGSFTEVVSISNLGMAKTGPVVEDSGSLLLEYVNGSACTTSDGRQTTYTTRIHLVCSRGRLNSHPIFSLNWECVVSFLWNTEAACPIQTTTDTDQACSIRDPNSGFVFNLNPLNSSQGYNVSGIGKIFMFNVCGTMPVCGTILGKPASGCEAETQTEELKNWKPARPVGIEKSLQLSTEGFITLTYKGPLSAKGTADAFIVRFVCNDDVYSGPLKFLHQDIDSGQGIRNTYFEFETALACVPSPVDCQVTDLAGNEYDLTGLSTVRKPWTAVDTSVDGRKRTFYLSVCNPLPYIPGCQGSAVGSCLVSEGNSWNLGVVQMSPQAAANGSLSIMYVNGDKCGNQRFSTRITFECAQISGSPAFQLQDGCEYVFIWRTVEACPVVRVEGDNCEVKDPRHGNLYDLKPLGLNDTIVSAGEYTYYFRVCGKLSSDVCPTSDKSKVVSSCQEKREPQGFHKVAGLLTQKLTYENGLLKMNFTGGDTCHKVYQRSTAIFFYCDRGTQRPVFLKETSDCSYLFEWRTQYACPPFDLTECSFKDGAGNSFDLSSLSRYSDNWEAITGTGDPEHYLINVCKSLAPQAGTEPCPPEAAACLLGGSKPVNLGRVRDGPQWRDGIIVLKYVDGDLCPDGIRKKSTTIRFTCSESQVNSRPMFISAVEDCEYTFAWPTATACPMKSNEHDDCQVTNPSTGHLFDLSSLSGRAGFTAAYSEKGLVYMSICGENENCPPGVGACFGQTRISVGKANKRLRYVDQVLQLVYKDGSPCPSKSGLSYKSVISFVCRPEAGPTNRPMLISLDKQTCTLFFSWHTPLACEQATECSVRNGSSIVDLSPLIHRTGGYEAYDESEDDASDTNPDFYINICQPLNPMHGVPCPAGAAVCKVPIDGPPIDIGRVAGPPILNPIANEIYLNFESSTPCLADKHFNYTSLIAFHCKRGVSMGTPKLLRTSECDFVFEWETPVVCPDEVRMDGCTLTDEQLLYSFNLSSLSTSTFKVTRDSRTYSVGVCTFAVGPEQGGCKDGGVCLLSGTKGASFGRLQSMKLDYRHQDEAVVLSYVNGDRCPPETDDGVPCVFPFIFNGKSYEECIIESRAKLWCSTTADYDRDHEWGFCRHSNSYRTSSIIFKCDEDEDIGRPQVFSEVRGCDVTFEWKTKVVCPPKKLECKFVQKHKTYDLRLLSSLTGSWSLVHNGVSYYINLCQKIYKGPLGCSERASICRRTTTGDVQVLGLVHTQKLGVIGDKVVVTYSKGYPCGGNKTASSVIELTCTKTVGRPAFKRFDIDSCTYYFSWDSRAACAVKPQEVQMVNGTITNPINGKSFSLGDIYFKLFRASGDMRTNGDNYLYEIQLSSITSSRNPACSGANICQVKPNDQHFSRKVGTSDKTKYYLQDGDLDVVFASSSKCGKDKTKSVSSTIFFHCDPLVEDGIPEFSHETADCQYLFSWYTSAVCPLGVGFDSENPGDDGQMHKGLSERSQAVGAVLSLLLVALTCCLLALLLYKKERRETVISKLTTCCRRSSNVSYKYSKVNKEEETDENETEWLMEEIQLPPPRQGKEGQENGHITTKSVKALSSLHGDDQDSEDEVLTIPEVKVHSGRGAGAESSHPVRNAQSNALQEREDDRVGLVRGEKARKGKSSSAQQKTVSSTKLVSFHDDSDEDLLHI

| Binder | Kd [1] | Kd [2] | fold lower apparent Kd against monomeric peptide 431 [3] |
| --- | --- | --- | --- |
| B1 | 6.19 µM |  |  |
| B2 |  | 0.701 µM | ~9 fold |
